Results taken from patent publication US20240209113A1 (BEIGENE SWITZERLAND, published 2024).
Each block holds one binder with its values, some of them ahead of it.

What was measured:
[1] = target: T1, Human CD137 ectodomain containing four CRDs (crystallization construct) (human, UniProt Q07011 24-162); experiment: complex purified by gel filtration and crystallized
T1 construct: Expressed with a C-terminal TEV site and Fc tag; the Fc tag was cut off
T1 chain: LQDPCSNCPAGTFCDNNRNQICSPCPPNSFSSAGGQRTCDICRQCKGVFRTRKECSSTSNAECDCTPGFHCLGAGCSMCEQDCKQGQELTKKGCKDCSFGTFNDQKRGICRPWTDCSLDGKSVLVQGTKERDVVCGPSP
Procedure: The complex was then further purified by gel filtration in buffer (20 mM Tris pH 8.0, 100 mM NaCl) using a HiLoad 16/600 Superdex™ 75 pg column (GE Healthcare Life Sciences). […] Crystals cryoprotected with stepwise 5% D-(+)-Sucrose to a final 20% concentration were flash frozen in liquid nitrogen. […] Crystal was cryoprotected with 7% glycerol and flash frozen in liquid nitrogen. The X-ray diffraction data was collected at beamline BL45XU at Spring-8 synchrotron radiation facility (Hyogo, Japan).

human CD137 ECD-mIgG2a = target: T2, human CD137 ECD-mIgG2a (human); experiment: competition ELISA on coated human CD137 ECD-mIgG2a: BGA-5623 (IgG4 Fc) detected with anti-human IgG-HRP in the presence of serially diluted human CD137 ligand ECD-mIgG2a
T2 construct: Human CD137 AA 24-183 fused to mouse IgG2a Fc; also called huCD137

human CD40 ECD-mIgG2a = target: T3, human CD40 ECD-mIgG2a (human); experiment: ELISA, antigens coated at 10 ug/ml; antibody concentration not given
T3 construct: also called huCD40; TNFRSF5(CD40)
T3 sequence (chain, as listed by the source limits assumed): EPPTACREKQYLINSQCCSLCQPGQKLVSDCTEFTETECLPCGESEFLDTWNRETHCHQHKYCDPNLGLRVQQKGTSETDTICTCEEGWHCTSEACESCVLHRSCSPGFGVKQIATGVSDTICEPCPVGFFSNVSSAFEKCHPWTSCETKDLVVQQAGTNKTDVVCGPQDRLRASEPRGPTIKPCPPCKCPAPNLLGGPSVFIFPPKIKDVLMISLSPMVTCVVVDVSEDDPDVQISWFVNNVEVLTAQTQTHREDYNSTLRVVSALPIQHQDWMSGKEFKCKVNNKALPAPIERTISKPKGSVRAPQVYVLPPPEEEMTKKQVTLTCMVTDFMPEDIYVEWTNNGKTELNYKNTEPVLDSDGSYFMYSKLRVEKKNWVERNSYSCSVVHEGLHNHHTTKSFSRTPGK

TNFRSF1A(CD120a) = target: T4, TNFRSF1A(CD120a) (UniProt P19438 30-211, limits assumed); experiment: as above
T4 construct: Bought protein
T4 sequence (looked up): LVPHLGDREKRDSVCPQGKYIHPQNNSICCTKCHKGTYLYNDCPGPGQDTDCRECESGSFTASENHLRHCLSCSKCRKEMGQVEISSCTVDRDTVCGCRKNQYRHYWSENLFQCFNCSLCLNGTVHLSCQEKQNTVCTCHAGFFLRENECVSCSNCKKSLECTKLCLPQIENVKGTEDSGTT

TNFRSF1B(CD120b) = target: T5, TNFRSF1B(CD120b) (UniProt P20333 23-257); experiment: as above
T5 construct: Bought protein
T5 sequence (looked up): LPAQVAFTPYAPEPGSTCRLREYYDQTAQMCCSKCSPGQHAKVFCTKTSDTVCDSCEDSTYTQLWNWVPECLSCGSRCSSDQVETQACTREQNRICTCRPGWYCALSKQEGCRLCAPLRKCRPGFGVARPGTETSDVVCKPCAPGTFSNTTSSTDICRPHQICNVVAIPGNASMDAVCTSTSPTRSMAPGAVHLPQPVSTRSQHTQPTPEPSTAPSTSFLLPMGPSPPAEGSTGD

human OX40 ECD-His = target: T6, human OX40 ECD-His (human, UniProt P43489 29-216); experiment: as above
T6 construct: also called human OX40-his; huOX40
T6 sequence: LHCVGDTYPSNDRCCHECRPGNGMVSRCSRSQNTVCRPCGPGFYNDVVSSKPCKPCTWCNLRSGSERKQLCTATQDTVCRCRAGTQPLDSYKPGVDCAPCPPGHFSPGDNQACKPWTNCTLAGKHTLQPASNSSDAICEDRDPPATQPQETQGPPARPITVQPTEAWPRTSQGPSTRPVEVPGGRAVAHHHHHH

binding result [1]: binds
B1: VH (BGA-5623) (VHH)
VHH: EVQLLESGGGLVQPGGSLRLSCAASGFTVSAEDVGWVRQAPGKGLEWVSAILDKGGSTYYAESVKGRFTISRDNAKNTLYLQMSSLRAEDTAVYYCARIVYHAGGGVTFDTRGQGTQVTVSS
notes: Human VH single domain made in E. coli with an N-terminal HIS-MBP tag removed by TEV protease

IC50 (read off the curve) (human CD137 ECD-mIgG2a): ~2 µg/mL
B2: human CD137 ligand-mIgG2a (Fc fusion)
chain: EPRGPTIKPCPPCKCPAPNLLGGPSVFIFPPKIKDVLMISLSPIVTCVVVDVSEDDPDVQISWFVNNVEVHTAQTQTHREDYNSTLRVVSALPIQHQDWMSGKEFKCKVNNKDLPAPIERTISKPKGSVRAPQVYVLPPPEEEMTKKQVTLTCMVTDFMPEDIYVEWTNNGKTELNYKNTEPVLDSDGSYFMYSKLRVEKKNWVERNSYSCSVVHEGLHNHHTTKSFSRTPGKGGGGSREGPELSPDDPAGLLDLRQGMFAQLVAQNVLLIDGPLSWYSDPGLAGVSLTGGLSYKEDTKELVVAKAGVYYVFFQLELRRVVAGEGSGSVSLALHLQPLRSAAGAAALALTVDLPPASSEARNSAFGFQGRLLHLSAGQRLGVHLHTEARARHAWQLTQGATVLGLFRVTPEIPAGLPSPRSE
notes: also called human CD137 ligand ECD-mIgG2a; huCD137 ligand

binding result (human CD40 ECD-mIgG2a): no binding
binding result (TNFRSF1A(CD120a)): no binding
binding result (TNFRSF1B(CD120b)): no binding
binding result (human OX40 ECD-His): no binding
B3: Urelumab analog (antibody, human IgG4 S228P, kappa, V domains shown)
VH: QVQLQQWGAGLLKPSETLSLTCAVYGGSFSGYYWSWIRQSPEKGLEWIGEINHGGYVTYNPSLESRVTISVDTSKNQFSLKLSSVTAADTAVYYCARDYGPGNYDWYFDLWGRGTLVTVSS
VL: EIVLTQSPATLSLSPGERATLSCRASQSVSSYLAWYQQKPGQAPRLLIYDASNRATGIPARFSGSGSGTDFTLTISSLEPEDFAVYYCQQRSNWPPALTFGGGTKVEIKR
notes: also called Urelumab analog antibody
